Results as given in patent US20250043022A1 (JIANGSU HENGRUI PHARMACEUTICALS, published 2025).
Numbering of substitutions follows the chain as printed.

B1: 27-F4 (bispecific antibody)
heavy: not shown
light: QIVLTQSPDFQSVTPKEKVTIQCSASSSVSYMYWYQQKPDQSPKPWIYRTSNLASGVPSRFSGSGSGTDYTLTINSLEAEDAATYYCQQYHSYPLTFGQGTKLEIKRTVAAPSVFIFPPSDEQLKSGTASVVCLLNNFYPREAKVQWKVDNALQSGNSQESVTEQDSKDSTYSLSSTLTLSKADYEKHKVYACEVTHQGLSSPVTKSFNRGEC
notes: PSMA x CD3, Format 4
B2: 31-F1 (bispecific antibody)
heavy 1: not shown
light 1: DIQMTQSPSSLSASVGDRVTITCRASGNIHNYLAWYQQKPGKAPKLLIYNAETLADGVPSRFSGSGSGTDFTLTISSLQPEDFATYYCQHFWSTPPTFGGGTKVEIKRTVAAPSVFIFPPSDEQLKSGTASVVCLLNNFYPREAKVQWKVDNALQSGNSQESVTEQDSKDSTYSLSSTLTLSKADYEKHKVYACEVTHQGLSSPVTKSFNRGEC
heavy 2: not shown
light 2: not shown
notes: PSMA x CD3, Format 1
B3: 43-F4 (bispecific antibody)
heavy: not shown
light: DIQMTQSPSSLSASVGDRVTITCKASQNVHTSVAWYQQKPGKSPKLLIYSASNRYSGVPSRFSGSGSGTDFTLTISSLQPEDVATYYCQQYSSYPLTFGQGTKLEIKRTVAAPSVFIFPPSDEQLKSGTASVVCLLNNFYPREAKVQWKVDNALQSGNSQESVTEQDSKDSTYSLSSTLTLSKADYEKHKVYACEVTHQGLSSPVTKSFNRGEC
notes: PSMA x CD3, Format 4
B4: 15-F4 (bispecific antibody)
heavy: not shown
light: B3 light with N28G, H30D, S32A, S50W, N53T, Y55H, S56T, S60D, S93R
notes: PSMA x CD3, Format 4
B5: 43-F3 (bispecific antibody)
heavy: not shown
light 1: B3 light
light 2: not shown
notes: PSMA x CD3, Format 3
B6: 46-F4 (bispecific antibody)
heavy: not shown
light: DIQMTQSPSSLSASVGDRVTITCKASQSVGTAVAWYQQKPGKAPKLLIYSASSRYTGVPSRFSGSGSGTDFTLTISSLQPEDFADYFCHQYSSYPLTFGGGTKVEIKRTVAAPSVFIFPPSDEQLKSGTASVVCLLNNFYPREAKVQWKVDNALQSGNSQESVTEQDSKDSTYSLSSTLTLSKADYEKHKVYACEVTHQGLSSPVTKSFNRGEC
notes: PSMA x CD3, Format 4
B7: 46-F1 (bispecific antibody)
heavy 1: not shown
light 1: B6 light
heavy 2: not shown
light 2: not shown
notes: PSMA x CD3, Format 1
B8: 46-F2 (bispecific antibody)
heavy 1: not shown
light 1: B6 light
heavy 2: not shown
light 2: not shown
notes: PSMA x CD3, Format 2

Assays:
[1] = target: T1, human PSMA on cells (Cho-hPSMA, CHO-K1 cells overexpressing full-length human PSMA) (human, UniProt Q04609 1-750); assay: cell ELISA, Cho-hPSMA; antibody at 6.25 nM
T1 construct: whole, on cells; also called cell surface PSMA; PSMA-expressing Lncap cells
T1 sequence (Q04609 whole entry): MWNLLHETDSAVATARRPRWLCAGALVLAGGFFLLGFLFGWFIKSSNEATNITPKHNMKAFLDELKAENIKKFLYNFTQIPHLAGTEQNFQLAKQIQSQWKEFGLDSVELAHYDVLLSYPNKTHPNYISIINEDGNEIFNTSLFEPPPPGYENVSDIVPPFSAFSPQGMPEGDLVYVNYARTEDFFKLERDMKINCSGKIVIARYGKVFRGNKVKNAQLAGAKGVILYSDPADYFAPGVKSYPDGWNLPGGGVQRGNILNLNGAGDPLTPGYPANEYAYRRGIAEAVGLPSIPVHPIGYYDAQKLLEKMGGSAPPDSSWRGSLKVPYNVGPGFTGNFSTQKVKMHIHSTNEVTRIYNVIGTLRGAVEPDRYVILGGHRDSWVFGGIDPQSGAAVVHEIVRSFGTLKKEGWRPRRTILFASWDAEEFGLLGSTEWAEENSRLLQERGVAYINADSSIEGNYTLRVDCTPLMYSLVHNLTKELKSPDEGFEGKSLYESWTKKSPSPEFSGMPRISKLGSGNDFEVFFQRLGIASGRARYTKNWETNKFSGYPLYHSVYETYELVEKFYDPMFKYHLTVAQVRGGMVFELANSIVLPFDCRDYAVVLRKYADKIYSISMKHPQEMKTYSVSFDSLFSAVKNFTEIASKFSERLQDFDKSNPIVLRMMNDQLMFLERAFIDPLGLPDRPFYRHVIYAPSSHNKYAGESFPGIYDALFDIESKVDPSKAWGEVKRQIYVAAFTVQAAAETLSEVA
Procedure: (§1) Experiment 2: Cells were cultured and inoculated onto a cell plate using the same method as in Experiment 1. The antibodies were serially diluted, and the antibody solutions were added to the cell plate at 100 μL/well. The plate was incubated at 4° C. for 1 h and then washed. An HRP-Goat Anti-human IgG (H+L) secondary antibody dilution (1:8000) was added to the cell plate at 100 μL/well, and the plate was incubated at 4° C. for 1 h and then washed by centrifugation. After color development with TMB, the reaction was stopped with 0.1 M sulfuric acid, and OD450 values were measured.
(§2) Experiment 4: The binding activity of bispecific antibodies was measured using the method of experiment 2.

[2] = target: T1, human PSMA on cells (Cho-hPSMA, CHO-K1 …); assay: cell ELISA, Cho-hPSMA; antibody at 25 nM
Procedure: as §1, §2

[3] = target: T1, human PSMA on cells (Cho-hPSMA, CHO-K1 …); assay: cell ELISA, Cho-hPSMA; antibody at 1.5625 nM
Procedure: as §1, §2

[4] = target: T1, human PSMA on cells (Cho-hPSMA, CHO-K1 …); assay: flow cytometry, Cho-hPSMA; antibody at 20 µg/mL
[5] = target: T1, human PSMA on cells (Cho-hPSMA, CHO-K1 …); assay: flow cytometry, Cho-hPSMA; antibody at 4 µg/mL
[6] = target: T1, human PSMA on cells (Cho-hPSMA, CHO-K1 …); assay: flow cytometry, Cho-hPSMA; antibody at 100 µg/mL
[7] = target: T1, human PSMA on cells (Cho-hPSMA, CHO-K1 …); assay: flow cytometry, Cho-hPSMA; antibody at 0.8 µg/mL
[8] = target: T2, human PSMA antigen (Acro, Cat. No. PSA-H52H3; Lys44-Ala750) (human, UniProt Q04609 44-750); assay: SPR (Biacore T200, 25 C), antibody captured on Protein A, 1:1 model
T2 construct: range 44-750
T2 sequence (Q04609 44-750 limits assumed): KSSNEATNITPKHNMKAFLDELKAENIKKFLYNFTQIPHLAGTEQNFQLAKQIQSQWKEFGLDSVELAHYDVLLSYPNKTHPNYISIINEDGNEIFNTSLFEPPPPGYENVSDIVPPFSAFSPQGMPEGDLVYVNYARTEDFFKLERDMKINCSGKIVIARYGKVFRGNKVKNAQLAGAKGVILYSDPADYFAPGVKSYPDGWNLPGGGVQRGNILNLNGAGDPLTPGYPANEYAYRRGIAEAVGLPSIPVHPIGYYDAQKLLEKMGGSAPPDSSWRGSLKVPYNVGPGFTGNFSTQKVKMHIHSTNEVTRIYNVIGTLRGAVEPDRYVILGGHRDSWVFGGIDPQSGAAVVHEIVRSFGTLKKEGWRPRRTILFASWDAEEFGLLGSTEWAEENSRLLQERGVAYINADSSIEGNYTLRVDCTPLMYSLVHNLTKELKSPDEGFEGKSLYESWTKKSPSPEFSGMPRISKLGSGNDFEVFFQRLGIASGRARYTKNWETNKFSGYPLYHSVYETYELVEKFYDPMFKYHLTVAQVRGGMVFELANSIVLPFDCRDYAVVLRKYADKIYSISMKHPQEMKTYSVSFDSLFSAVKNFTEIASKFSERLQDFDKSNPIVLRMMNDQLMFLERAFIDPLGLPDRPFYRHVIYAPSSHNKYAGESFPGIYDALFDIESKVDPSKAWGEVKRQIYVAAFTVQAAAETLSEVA
Procedure: Experiment 5: Antibodies were affinity-captured using a Protein A biosensor chip, and human PSMA was then allowed to flow over the chip surface. The association and dissociation curves were obtained by real-time detection of reaction signals using a Biacore T200 instrument at 25° C. After the dissociation in each experimental cycle was complete, the biosensor chip was regenerated by washing with Glycine 1.5. Data fitting was performed using a 1:1 Model. The human PSMA antigen was purchased from Acro (Cat. No. PSA-H52H3; Lys44-Ala750), and the hCD3D&CD3E complex antigen was purchased from Sino Biological (Cat. No. CT038-H2508H).

[9] = target: T1, human PSMA on cells (Cho-hPSMA, CHO-K1 …); assay: cell-based or functional assay
[10] = target: T1, human PSMA on cells (Cho-hPSMA, CHO-K1 …); assay: flow cytometry, Cho-hPSMA; antibody at 100 nM
Procedure: (§3) Experiment 1: Cho-hPSMA was cultured in F12 medium with 10% FBS. The medium to which cells were inoculated was incubated in a 37° C., 5% CO₂ incubator for 2 days, and cells were added to a cell plate at 1×10⁵ cells/well and washed by centrifugation. Antibodies were serially diluted, and the antibody solutions were added to the cell plate at 100 μL/well. The plate was incubated at 4° C. for 1 h and then washed. An AF488-Goat Anti-human IgG Fc fluorescent secondary antibody dilution (1:400) was added to the cell plate at 100 μL/well, and the plate was incubated at 4° C. for 1 h and then washed. PBS was added to the cell plate at 100 μL/well before plate reading.
(§4) Experiment 3: The binding activity of bispecific antibodies was measured using the method of experiment 1.

[11] = target: T1, human PSMA on cells (Cho-hPSMA, CHO-K1 …); assay: flow cytometry, Cho-hPSMA; antibody at 0.8 nM
Procedure: as §3, §4

[12] = target: T1, human PSMA on cells (Cho-hPSMA, CHO-K1 …); assay: flow cytometry, Cho-hPSMA; antibody at 20 nM
Procedure: as §3, §4

[13] = target: T1, human PSMA on cells (Cho-hPSMA, CHO-K1 …); assay: flow cytometry, Cho-hPSMA; antibody at 4 nM
Procedure: as §3, §4

| Binder | absorbance [1] [OD450] | absorbance [2] [OD450] | absorbance [3] [OD450] | cytotoxic activity against Lncap, EC50 [9] [pM] | cytotoxic activity against Lncap, Maximum lysis rate % [9] [%] | fluorescence intensity [10] | fluorescence intensity [11] | fluorescence intensity [12] | fluorescence intensity [13] | other results |
| --- | --- | --- | --- | --- | --- | --- | --- | --- | --- | --- |
| B1 | 0.732 | 1.05 | 0.419 |  |  |  |  |  |  |  |
| B2 |  |  |  |  |  |  |  |  |  | fluorescence intensity [4]: 16200; fluorescence intensity [5]: 7970; fluorescence intensity [6]: 16500; fluorescence intensity [7]: 2520; Kd [8]: 1.86 nM; koff [8]: 1.84e-05 s⁻¹; kon [8]: 9890 M⁻¹ s⁻¹ |
| B3 | 0.527 | 1.04 | 0.254 | 6.21 | 48 |  |  |  |  |  |
| B4 |  |  |  | 9.63 | 63.2 | 32200 | 8280 | 31400 | 22000 |  |
| B5 | 0.441 | 0.721 | 0.227 | 7.39 | 49.5 |  |  |  |  |  |
| B6 |  |  |  | 2.85 | 63.5 | 21300 | 9490 | 20800 | 18700 |  |
| B7 |  |  |  |  |  | 31600 | 3930 | 28600 | 12300 |  |
| B8 |  |  |  |  |  | 23000 | 8330 | 23100 | 19400 |  |
